The source of these data is patent US12280095B2, “Tissue modifier and uses therefor” (Fibrosoft Pte Ltd, priority 2021, dated 2025).

The experiment relates to Dupuytren's disease. Description: Treatment of Dupuytren's disease patients by intralesional injection of tPA in combination with hyaluronidase. The format is in vivo, human.

B1: ALTEPLASE: tissue plasminogen activator (tPA), collagenase-producing agent; comparator when administered on its own (protein, UniProt P00750 36-562, looked up)
Tissue-type plasminogen …: SYQVICRDEKTQMIYQQHQSWLRPVLRSNRVEYCWCNSGRAQCHSVPVKSCSEPRCFNGGTCQQALYFSDFVCQCPEGFAGKCCEIDTRATCYEDQGISYRGTWSTAESGAECTNWNSSALAQKPYSGRRPDAIRLGLGNHNYCRNPDRDSKPWCYVFKAGKYSSEFCSTPACSEGNSDCYFGNGSAYRGTHSLTESGASCLPWNSMILIGKVYTAQNPSAQALGLGKHNYCRNPDGDAKPWCHVLKNRRLTWEYCDVPSCSTCGLRQYSQPQFRIKGGLFADIASHPWQAAIFAKHRRSPGERFLCGGILISSCWILSAAHCFQERFPPHHLTVILGRTYRVVPGEEEQKFEVEKYIVHKEFDDDTYDNDIALLQLKSDSSRCAQESSVVRTVCLPPADLQLPDWTECELSGYGKHEALSPFYSERLKEAHVRLYPSSRCTSQHLLNRTVTDNMLCAGDTRSGGPQANLHDACQGDSGGPLVCLNDGRMTLVGIISWGLGCGQKDVPGVYTKVTNYLDWIRDNMRP
On to B1, for which the “mean time required to observe discernible reduction in volume of the fibromatosis, reduction of contracture and improvement in the range of motion” value (ALTEPLASE administered on its own, patients with Dupuytren's disease) was 4-6 weeks. Also, the “time required to obtain similar effects (volume reduction, flexion improvement)” value (ALTEPLASE alone) was 4-6 weeks.
